Data as given in US20210388087A1 (Chugai, published 2021).

T1: Human CD3eg linker (human)
T1 construct: Single-chain construct; also called recombinant human CD3
T1 chain: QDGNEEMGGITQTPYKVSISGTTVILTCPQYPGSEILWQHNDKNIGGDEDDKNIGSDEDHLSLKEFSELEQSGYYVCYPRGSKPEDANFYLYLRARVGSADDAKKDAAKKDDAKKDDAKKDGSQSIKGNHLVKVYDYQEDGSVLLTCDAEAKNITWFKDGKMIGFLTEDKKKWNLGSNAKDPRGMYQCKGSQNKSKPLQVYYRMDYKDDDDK


Target: T1, Human CD3eg linker
Assay: SPR; fold vs parent H183/L072

fold change of affinity	Binder
1.3 fold	H183/L072 VL E27aT (antibody, name in Kabat numbering, V domains shown) VH: QVQLVESGGGLVQPGRSLRLSCAASGFTFSNAWMHWVRQAPGKGLEWVAQIKDKGNAYAAYYAPSVKGRFTISRDDSKNSIYLQMNSLKTEDTAVYYCHYVHYASASTVLPAFGVDAWGQGTTVTVSS VL: DIVMTQSPLSLPVTPGEPASISCQASQTLVHMNRNTYLHWYQQKPGQAPRLLIYKVSNRFPGVPDRFSGSGSGTDFTLKISRVEAEDVGVYYCAQGTSVPFTFGQGTKLEIK
2.9 fold	H183/L072 VL F55L (antibody, name in Kabat numbering, V domains shown) VH: QVQLVESGGGLVQPGRSLRLSCAASGFTFSNAWMHWVRQAPGKGLEWVAQIKDKGNAYAAYYAPSVKGRFTISRDDSKNSIYLQMNSLKTEDTAVYYCHYVHYASASTVLPAFGVDAWGQGTTVTVSS VL: DIVMTQSPLSLPVTPGEPASISCQASQELVHMNRNTYLHWYQQKPGQAPRLLIYKVSNRLPGVPDRFSGSGSGTDFTLKISRVEAEDVGVYYCAQGTSVPFTFGQGTKLEIK
3.9 fold	H183/L072 VL F55N (antibody, name in Kabat numbering, V domains shown) VH: QVQLVESGGGLVQPGRSLRLSCAASGFTFSNAWMHWVRQAPGKGLEWVAQIKDKGNAYAAYYAPSVKGRFTISRDDSKNSIYLQMNSLKTEDTAVYYCHYVHYASASTVLPAFGVDAWGQGTTVTVSS VL: DIVMTQSPLSLPVTPGEPASISCQASQELVHMNRNTYLHWYQQKPGQAPRLLIYKVSNRNPGVPDRFSGSGSGTDFTLKISRVEAEDVGVYYCAQGTSVPFTFGQGTKLEIK
2.9 fold	H183/L072 VL F55Q (antibody, name in Kabat numbering, V domains shown) VH: QVQLVESGGGLVQPGRSLRLSCAASGFTFSNAWMHWVRQAPGKGLEWVAQIKDKGNAYAAYYAPSVKGRFTISRDDSKNSIYLQMNSLKTEDTAVYYCHYVHYASASTVLPAFGVDAWGQGTTVTVSS VL: DIVMTQSPLSLPVTPGEPASISCQASQELVHMNRNTYLHWYQQKPGQAPRLLIYKVSNRQPGVPDRFSGSGSGTDFTLKISRVEAEDVGVYYCAQGTSVPFTFGQGTKLEIK
1.2 fold	H183/L072 VL E27aY (antibody, name in Kabat numbering, V domains shown) VH: QVQLVESGGGLVQPGRSLRLSCAASGFTFSNAWMHWVRQAPGKGLEWVAQIKDKGNAYAAYYAPSVKGRFTISRDDSKNSIYLQMNSLKTEDTAVYYCHYVHYASASTVLPAFGVDAWGQGTTVTVSS VL: DIVMTQSPLSLPVTPGEPASISCQASQYLVHMNRNTYLHWYQQKPGQAPRLLIYKVSNRFPGVPDRFSGSGSGTDFTLKISRVEAEDVGVYYCAQGTSVPFTFGQGTKLEIK
4 fold	H183/L072 VL F55R (antibody, name in Kabat numbering, V domains shown) VH: QVQLVESGGGLVQPGRSLRLSCAASGFTFSNAWMHWVRQAPGKGLEWVAQIKDKGNAYAAYYAPSVKGRFTISRDDSKNSIYLQMNSLKTEDTAVYYCHYVHYASASTVLPAFGVDAWGQGTTVTVSS VL: DIVMTQSPLSLPVTPGEPASISCQASQELVHMNRNTYLHWYQQKPGQAPRLLIYKVSNRRPGVPDRFSGSGSGTDFTLKISRVEAEDVGVYYCAQGTSVPFTFGQGTKLEIK
8.3 fold	H183/L072 VL F55K (antibody, name in Kabat numbering, V domains shown) VH: QVQLVESGGGLVQPGRSLRLSCAASGFTFSNAWMHWVRQAPGKGLEWVAQIKDKGNAYAAYYAPSVKGRFTISRDDSKNSIYLQMNSLKTEDTAVYYCHYVHYASASTVLPAFGVDAWGQGTTVTVSS VL: DIVMTQSPLSLPVTPGEPASISCQASQELVHMNRNTYLHWYQQKPGQAPRLLIYKVSNRKPGVPDRFSGSGSGTDFTLKISRVEAEDVGVYYCAQGTSVPFTFGQGTKLEIK
7.2 fold	H183/L072 VL F55A (antibody, name in Kabat numbering, V domains shown) VH: QVQLVESGGGLVQPGRSLRLSCAASGFTFSNAWMHWVRQAPGKGLEWVAQIKDKGNAYAAYYAPSVKGRFTISRDDSKNSIYLQMNSLKTEDTAVYYCHYVHYASASTVLPAFGVDAWGQGTTVTVSS VL: DIVMTQSPLSLPVTPGEPASISCQASQELVHMNRNTYLHWYQQKPGQAPRLLIYKVSNRAPGVPDRFSGSGSGTDFTLKISRVEAEDVGVYYCAQGTSVPFTFGQGTKLEIK
8.1 fold	H183/L072 VL F55P (antibody, name in Kabat numbering, V domains shown) VH: QVQLVESGGGLVQPGRSLRLSCAASGFTFSNAWMHWVRQAPGKGLEWVAQIKDKGNAYAAYYAPSVKGRFTISRDDSKNSIYLQMNSLKTEDTAVYYCHYVHYASASTVLPAFGVDAWGQGTTVTVSS VL: DIVMTQSPLSLPVTPGEPASISCQASQELVHMNRNTYLHWYQQKPGQAPRLLIYKVSNRPPGVPDRFSGSGSGTDFTLKISRVEAEDVGVYYCAQGTSVPFTFGQGTKLEIK
6.1 fold	H183/L072 VL F55D (antibody, name in Kabat numbering, V domains shown) VH: QVQLVESGGGLVQPGRSLRLSCAASGFTFSNAWMHWVRQAPGKGLEWVAQIKDKGNAYAAYYAPSVKGRFTISRDDSKNSIYLQMNSLKTEDTAVYYCHYVHYASASTVLPAFGVDAWGQGTTVTVSS VL: DIVMTQSPLSLPVTPGEPASISCQASQELVHMNRNTYLHWYQQKPGQAPRLLIYKVSNRDPGVPDRFSGSGSGTDFTLKISRVEAEDVGVYYCAQGTSVPFTFGQGTKLEIK
4.2 fold	H183/L072 VL F55T (antibody, name in Kabat numbering, V domains shown) VH: QVQLVESGGGLVQPGRSLRLSCAASGFTFSNAWMHWVRQAPGKGLEWVAQIKDKGNAYAAYYAPSVKGRFTISRDDSKNSIYLQMNSLKTEDTAVYYCHYVHYASASTVLPAFGVDAWGQGTTVTVSS VL: DIVMTQSPLSLPVTPGEPASISCQASQELVHMNRNTYLHWYQQKPGQAPRLLIYKVSNRTPGVPDRFSGSGSGTDFTLKISRVEAEDVGVYYCAQGTSVPFTFGQGTKLEIK
6.6 fold	H183/L072 VL F55S (antibody, name in Kabat numbering, V domains shown) VH: QVQLVESGGGLVQPGRSLRLSCAASGFTFSNAWMHWVRQAPGKGLEWVAQIKDKGNAYAAYYAPSVKGRFTISRDDSKNSIYLQMNSLKTEDTAVYYCHYVHYASASTVLPAFGVDAWGQGTTVTVSS VL: DIVMTQSPLSLPVTPGEPASISCQASQELVHMNRNTYLHWYQQKPGQAPRLLIYKVSNRSPGVPDRFSGSGSGTDFTLKISRVEAEDVGVYYCAQGTSVPFTFGQGTKLEIK
3.6 fold	H183/L072 VL F55M (antibody, name in Kabat numbering, V domains shown) VH: QVQLVESGGGLVQPGRSLRLSCAASGFTFSNAWMHWVRQAPGKGLEWVAQIKDKGNAYAAYYAPSVKGRFTISRDDSKNSIYLQMNSLKTEDTAVYYCHYVHYASASTVLPAFGVDAWGQGTTVTVSS VL: DIVMTQSPLSLPVTPGEPASISCQASQELVHMNRNTYLHWYQQKPGQAPRLLIYKVSNRMPGVPDRFSGSGSGTDFTLKISRVEAEDVGVYYCAQGTSVPFTFGQGTKLEIK
1 fold	H183/L072 VL E27aV (antibody, name in Kabat numbering, V domains shown) VH: QVQLVESGGGLVQPGRSLRLSCAASGFTFSNAWMHWVRQAPGKGLEWVAQIKDKGNAYAAYYAPSVKGRFTISRDDSKNSIYLQMNSLKTEDTAVYYCHYVHYASASTVLPAFGVDAWGQGTTVTVSS VL: DIVMTQSPLSLPVTPGEPASISCQASQVLVHMNRNTYLHWYQQKPGQAPRLLIYKVSNRFPGVPDRFSGSGSGTDFTLKISRVEAEDVGVYYCAQGTSVPFTFGQGTKLEIK
8.1 fold	H183/L072 VL F55G (antibody, name in Kabat numbering, V domains shown) VH: QVQLVESGGGLVQPGRSLRLSCAASGFTFSNAWMHWVRQAPGKGLEWVAQIKDKGNAYAAYYAPSVKGRFTISRDDSKNSIYLQMNSLKTEDTAVYYCHYVHYASASTVLPAFGVDAWGQGTTVTVSS VL: DIVMTQSPLSLPVTPGEPASISCQASQELVHMNRNTYLHWYQQKPGQAPRLLIYKVSNRGPGVPDRFSGSGSGTDFTLKISRVEAEDVGVYYCAQGTSVPFTFGQGTKLEIK
1.1 fold	H183/L072 VL E27aW (antibody, name in Kabat numbering, V domains shown) VH: QVQLVESGGGLVQPGRSLRLSCAASGFTFSNAWMHWVRQAPGKGLEWVAQIKDKGNAYAAYYAPSVKGRFTISRDDSKNSIYLQMNSLKTEDTAVYYCHYVHYASASTVLPAFGVDAWGQGTTVTVSS VL: DIVMTQSPLSLPVTPGEPASISCQASQWLVHMNRNTYLHWYQQKPGQAPRLLIYKVSNRFPGVPDRFSGSGSGTDFTLKISRVEAEDVGVYYCAQGTSVPFTFGQGTKLEIK
3.4 fold	H183/L072 VL F55I (antibody, name in Kabat numbering, V domains shown) VH: QVQLVESGGGLVQPGRSLRLSCAASGFTFSNAWMHWVRQAPGKGLEWVAQIKDKGNAYAAYYAPSVKGRFTISRDDSKNSIYLQMNSLKTEDTAVYYCHYVHYASASTVLPAFGVDAWGQGTTVTVSS VL: DIVMTQSPLSLPVTPGEPASISCQASQELVHMNRNTYLHWYQQKPGQAPRLLIYKVSNRIPGVPDRFSGSGSGTDFTLKISRVEAEDVGVYYCAQGTSVPFTFGQGTKLEIK
4.4 fold	H183/L072 VL F55V (antibody, name in Kabat numbering, V domains shown) VH: QVQLVESGGGLVQPGRSLRLSCAASGFTFSNAWMHWVRQAPGKGLEWVAQIKDKGNAYAAYYAPSVKGRFTISRDDSKNSIYLQMNSLKTEDTAVYYCHYVHYASASTVLPAFGVDAWGQGTTVTVSS VL: DIVMTQSPLSLPVTPGEPASISCQASQELVHMNRNTYLHWYQQKPGQAPRLLIYKVSNRVPGVPDRFSGSGSGTDFTLKISRVEAEDVGVYYCAQGTSVPFTFGQGTKLEIK
7.4 fold	H183/L072 VL F55H (antibody, name in Kabat numbering, V domains shown) VH: QVQLVESGGGLVQPGRSLRLSCAASGFTFSNAWMHWVRQAPGKGLEWVAQIKDKGNAYAAYYAPSVKGRFTISRDDSKNSIYLQMNSLKTEDTAVYYCHYVHYASASTVLPAFGVDAWGQGTTVTVSS VL: DIVMTQSPLSLPVTPGEPASISCQASQELVHMNRNTYLHWYQQKPGQAPRLLIYKVSNRHPGVPDRFSGSGSGTDFTLKISRVEAEDVGVYYCAQGTSVPFTFGQGTKLEIK
3.4 fold	H183/L072 VL F55E (antibody, name in Kabat numbering, V domains shown) VH: QVQLVESGGGLVQPGRSLRLSCAASGFTFSNAWMHWVRQAPGKGLEWVAQIKDKGNAYAAYYAPSVKGRFTISRDDSKNSIYLQMNSLKTEDTAVYYCHYVHYASASTVLPAFGVDAWGQGTTVTVSS VL: DIVMTQSPLSLPVTPGEPASISCQASQELVHMNRNTYLHWYQQKPGQAPRLLIYKVSNREPGVPDRFSGSGSGTDFTLKISRVEAEDVGVYYCAQGTSVPFTFGQGTKLEIK
